The text below walks through data of patent US20240271119A1 (BROAD INSTITUTE, published 2024).

Data set [1] has as its target YibK-SH2 (periplasmic, from SS-YibK-SH2). Put plainly: cell-based or functional assay.
Data set [2] addresses YibK(V139R)-SH2 (periplasmic, from SS-YibK(V139R)-SH2). Put plainly: cell-based or functional assay.
In data set [3] the target is GCN4(7P14P)-SH2 (periplasmic, from SSPelB-GCN4(7P14P)-SH2, pMM95a) (yeast). The experiment in a line: cell-based or functional assay.
The target of data set [4] is CadC1-155-Leu(16)TM-GCN4(7P14P) (pMM114a) (E. coli; yeast). Put plainly: cell-based or functional assay.
Data set [5] deals with the molecule itself. The experiment in a line: Western blot of whole-cell lysate with and without DTT. In general terms: Immunoblotting shows a protein as a band on a membrane.

With “YibK-SH2 (periplasmic, from SS-YibK-SH2)”, in data set [1], the PcadBA transcriptional activation (LuxAB luminescence) turned out to be 66 fold and the overnight phage propagation was greater than 1000 fold.

“YibK(V139R)-SH2 (periplasmic, from SS-YibK(V139R)-SH2)” came in with a PcadBA-directed LuxAB expression in data set [2] greater than 8 fold loss.

B1: Ω-graft-SH2 (periplasmic, from SS-Ω-graft-SH2) (scFv)
scFv: RDIVMTQSPSSLSASVGDRVTITCRSSTGAVTTSNYASWVQEKPGKLFKGLIGGTNNRAPGVPSRFSGSLIGDKATLTISSLQPEDFATYFCALWYSNHWVFGQGTKVELKRGGGGSGGGGSGGGGSSGGGSEVKLLESGGGLVQPGGSLKLSCAVSGFSLTDYGVNWVRQAPGRGLEWIGVIWGDGITDYNSALKDRFIISKDDCENTVYLQMSKVRSDDTALYYCVTGLFDYWGQGTLVTVSSGGSGGSGGSGGSGGSSLEKHSWYHGPVSRNAAEYLLSSGINGSFLVRESESSPGQRSISLRYEGRVYHYRINTASDGKLYVSSESRFNTLAELVHHHSTVADGLITTLHYPAPKR
In data set [3], B1 returned a PcadBA-driven LuxAB expression of 30 fold and a phage enrichment in mock selection (PACE 12 hours or two PANCE passages) greater than 1000 fold.

B2: Ω-graft(L231F F232A)-SH2 (periplasmic, from SS-Ω-graft(L231F F232A)-SH2) (scFv)
scFv: RDIVMTQSPSSLSASVGDRVTITCRSSTGAVTTSNYASWVQEKPGKLFKGLIGGTNNRAPGVPSRFSGSLIGDKATLTISSLQPEDFATYFCALWYSNHWVFGQGTKVELKRGGGGSGGGGSGGGGSSGGGSEVKLLESGGGLVQPGGSLKLSCAVSGFSLTDYGVNWVRQAPGRGLEWIGVIWGDGITDYNSALKDRFIISKDDCENTVYLQMSKVRSDDTALYYCVTGFADYWGQGTLVTVSSGGSGGSGGSGGSGGSSLEKHSWYHGPVSRNAAEYLLSSGINGSFLVRESESSPGQRSISLRYEGRVYHYRINTASDGKLYVSSESRFNTLAELVHHHSTVADGLITTLHYPAPKR
Turning to B2, the PcadBA transcriptional activation (LuxAB) (fold decrease) in data set [3] stood at 55.

B3: Ω-graft scFv variant 37o5c2.1 (R1C F232A) (scFv)
scFv: CDIVMTQSPSSLSASVGDRVTITCRSSTGAVTTSNYASWVQEKPGKLFKGLIGGTNNRAPGVPSRFSGSLIGDKATLTISSLQPEDFATYFCALWYSNHWVFGQGTKVELKRGGGGSGGGGSGGGGSSGGGSEVKLLESGGGLVQPGGSLKLSCAVSGFSLTDYGVNWVRQAPGRGLEWIGVIWGDGITDYNSALKDRFIISKDDCENTVYLQMSKVRSDDTALYYCVTGLADYWGQGTLVTVSS
Molecule B3 had an overnight phage enrichment in data set [4] of 1000 fold.

B4: YibK(V139R R146C)-SH2 (periplasmic, pMM103g) (other)
chain: MLDIVLYEPEIPQNTGNIIRLCANTGFRLHLIEPLGFTWDDKRLRRSGLDYHEFAEIKRHKTFEAFLESEKPKRLFALTTKGCPAHSQVKFKLGDYLMFGPETRGIPMSILNEMPMEQKIRIPMTANSRSMNLSNSVARTVYEAWCQLGYKGAVNLPEVKGGSGGSGGSGGSGGSSLEKHSWYHGPVSRNAAEYLLSSGINGSFLVRESESSPGQRSISLRYEGRVYHYRINTASDGKLYVSSESRFNTLAELVHHHSTVADGLITTLHYPAPKR
In the case of B4, the binding result in data set [5] was “binds”.
